Positions count from the first letter of the chain named.
B1: fp.011 (antibody, V domains shown)
VH: EVQLLESGGGLVQPGGSLRLSCAGSGFTFNNYAMTWVRQAPGRGLEWVSAISGSGGSSHYADSVKGRFTITRDNSKNTLYLQMNSLRAEDTAVYYCAFIDYYSGWSYYYGLDVWGQGTTVTVSS
VL: EIVLTQSPATLSLSPGERATLSCRASQGVRTYVAWYQQKPGQAPRLLIYDASNRATGIPARFSGSGSGTDFTLTISSLEPEDFAVYYCQQRYNWPLCSFGQGTKLEIK
B2: hr2.017 (antibody, V domains shown)
VH: EVQLVESGGGLVQPGGSLRLSCAVSGFAFSSSWMHWIRQAPGRGLVWVSRINRDGSTTDYADSVKGRFTISRDNAKATLYLQMNSLRAEDTAVYYCATMGFDYWGQGALVTVSS
VL: DIVMTQSPDSLAVSLGERATINCKSSQNVLYSSNNKNHLSWYQQKPGQPPKLLIYWASTRKSGVPDRFSGSGSGTDFTLTINSLQAEDVAVYYCQQYFSTPNTFGQGTKLEIK
B3: fp.001 (antibody, V domains shown)
VH: VQLVESGGGVVQPGRPLRLSCSGSGFIFSNYAMHWVRQAPGKGLEWVAIISFDARNKRYADSVEGRFTISRDNSKNILYLQMNSLRLEDSAVYFCARDLFLSDYDNGVYDPTRGGFDYWGQGTLVTVSS
VL: EIVMTQSPATLSLSPGERATLSCRASQSVNNRLAWYQQKLGQPPRLLISGASTRATGIPARFTGSGSGTEFTLTISSLQSEDFAVYYCQQYHDWPLLSFGGGTKVEIK
B4: fp.003 (antibody, V domains shown)
VH: VQLVESGGGVVQPGTSLRLSCTASGFSFSNYAMHWVRQAPGKGLEWVAIISFDTRNKEFADSVKGRFSISRDNSKNSLNLQMNSLRPEDTGVYYCARDLFLSDYDSRGYEPSRGGFDYWGQGTLVTVSS
VL: B3 VL with L13V, N30S, N31S, R32S, S49Y, T63S, Q79K, F83S, H92N
B5: hr2.020 (antibody, V domains shown)
VH: EVQLVQSGAEVKKPGESLKISCKGSGYRFASHWIGWVRQMPGKGLQWMGIIYPGDSDTKYSPSFQGQVTISADKSINTVYLHWTSLKASDTAVYYCARRPPHLDGGDSPIRFDHWGQGTLVTVSS
VL: QSVLTQPPSASGTPGQRVTISCSGSRSNIGSNDVYWYQQFPGTAPKLLIYRNNQRPSGVPDRFSGSKSGTSASLAISGLRSEDEADYYCATWDDRLTGVFGGGTKLTVV
B6: fp.005 (antibody, V domains shown)
VH: VQLVESGGGVVQPGNSLRLSCAASGFRFNNYAMHWVRQAPGKGLEWVAIISYEARNEKYADSVKGRFSISRDNAKNTLYLQMNSLRADDTGVYYCARDLFLSDYDTSGYDRTRGGFDYWGQGALVTVSS
VL: EIVMTQSPATLSVSPGERATLSCRASQSVSNGLAWYQHRFGQPPRLLIYGASTRATGIPTRFSGSGSGTEFTLTISSLQSEDFAVYYCQQYDDWPLITFGGGTKVEIK
B7: fp.008 (antibody, V domains shown)
VH: VQLVESGGGVVQPGRSLRLSCRASGFRFNNYAMHWVRQAPGKGLEWVAIISYEARNEKYAASVKGRFSISRDNAKNTLYLQMNSLRPEDTAIYYCARDVFLSDYDQSGYDVTRGGFDYWGQGTLVTVSS
VL: EIVMTQSPATLSVSPGESATLSCRASQSVSSSLAWYQHKFGQAPRLLIYGASTRATGIPDRFSGSGSGMEFTLTISSLQSEDVAIYYCQQYGDWPLVTFGGGTKVEIK
B8: fp.009 (antibody, V domains shown)
VH: VQLVESGGGVVQPGTSLTLSCEASGFTFSNYAMHWVRQAPGKGLEWVAIISFDTRNKKFAGSVQGRFSISRDNAKNSIYLQMNNLRPEDTGIYYCARDVFLSDYDSRGFDRTRGGFDYWGQGTLVTVSS
VL: B7 VL with S18K, Q27E, S30G, H38Q, F40L, D60A, M69A, V83F, V97L
B9: fp.006 (antibody, V domains shown)
VH: VQLVESGGGVVQPGGSLRLSCAASGFNFNNYALHWVRQAPGKGLEWVAIISYEARNKKYGVSVMGRFSISRDNSKSIMYLEMNSLRVEDTGVYYCARDLFLSDYDRSGYDPTRGGFDHWGQGTLVTVSS
VL: B7 VL with S18R, K39R, Y49S, D60G, M69T, I85V
B10: fp.002 (antibody, V domains shown)
VH: VQLVESGGGVVQPGTSLRLSCAGSGFNFDNYAIHWVRQAPGQGLEWVAIISYEARNKKYAGSVTGRFSISRDNSKSMVYLQMDSLRGEDTAVYYCARDLFLSDYDRSGYDPTRGGFDLWGQGTLVTVSS
VL: B7 VL with S18R, F40L, D60G, M69T
B11: fp.004 (antibody, V domains shown)
VH: VQLVESGGGVVQPGTSLRLSCVASGFTFSNYAMHWVRQAPGKGLEWVAIISFDTRNTASAASVKGRFNISRDNSKNSLYLQMNSLRPEDTGVYYCARDLFLSDYDSRGYDPITGGFDCWGQGTLVTVSS
VL: EIVMTQSPAALSVSPGEGATLSCRASQSVGSRLAWYQQKLGRPPRLLIYGASTRATGIPARFSGSGSGTEFTLTISSLQSEDFAVYYCQQYNDWPLLTFGGGTKVKIK
B12: hr2.021 (antibody, V domains shown)
VH: QVQLVQSGAEVKKPGASVKVSCKASEAIFSGSYLHWVRQAPGQGLEWMGIITPSGDKTFYAQRFQGRLTMTRDTSTNTLHMHLSGLNSEDTAMYYCARQADKGGWDYWGQGTLVTVSS
VL: EIVLTQSPGTLSLSPGERATLSCRASQSVTSNYVAWYQQKPGQAPRLLIYGASTRATGIPDRFSGGGSGTDFTLTITRLEPEDFAVYYCQQYGSSPPTFTFGPGTKVDIK
B13: hr2.023 (antibody, V domains shown)
VH: QVQLVQSGAEVKKPGASVKVSCRASENIFSDSYLHWVRQAPGQGLEWMGIITPSGDKTFYAQQFQGRLTMTRDTPTNTLHMDLRGLTSADTAIYYCARQATKGGWDYWGQGTLVTVSS
VL: B12 VL with R18S, S31R, V34L, K40Q, T54N, I59V, G66S, T77S, T100I
B14: hr2.024 (antibody, V domains shown)
VH: QVQLVQSGAEVKKPGASVKVSCKASEDIFTDSYLHWVRQAPGQGLEWMGIITPSGDKTFYAQQFQGRLTMTRDPSTNTLYMFLSGLRSDDTAMYFCARQAEKGGWDYWGHGTLVTVSS
VL: B12 VL with E17Q, A25S, S28T, V29I, V34L, K40R, T54I, G66S, T77S, T100I
B15: hr2.016 (antibody, V domains shown)
VH: EVQLLESGGGLVQPGGSLRLSCAASGFMFSKYAMTWVRQTPGKGLEWVSVISGGGGSTYYADSVKGRFTISRDNSKNTLYLQMNSLRAEDTAVYYCAKLLVVFVIDYWGQGALVTVSS
VL: EIVLTQSPGTLSLSPGERATLFCRASQSVSSNLAWYQQKPGRAPRLLISGASSRATGIPDRFSGSGSGTDFTLTISRLEPEDFAVYYCQQYGSSPPTFGQGTKVEIK
B16: hr2.012 (antibody, V domains shown)
VH: QVQLVQSGAEVKKPGASVKVSCKASGYTFTSHYIHWVRQAPGQGLEWMGIIKPSGGNTIYAQTFQGRVTMTRDTSTSTVYMELRSLTSDDTAVYYCARDQDHGLQRWGQGTLVTVSS
VL: QSVLTQPPSVSAPPGQKVTISCSGSSSNIGNNFVSWYQQLPGTAPKLLIYDNIERPSGIPDRFSGSRSGTSATLGITGLQTGDEADYYCGTWDTSLGAWVFGGGTKVTVL
B17: hr2.015 (antibody, V domains shown)
VH: QVQLVQSGAEVKKPGASVKVSCKASGYTFSSYYVNWVRQAPGQGLEWLGIINRSGSSTIYAQKFQGRVTMTRDTSTSTVYLELSSLRSEDTAVYYCARDQDHALHWGQGTLVTVSS
VL: B16 VL with P13A, N31S, F33Y, I53S, G97S, V107L
B18: hr2.013 (antibody, V domains shown)
VH: QVQLVQSGAEVKKPGASVKISCKASGYTFTNNYMNWVRQAPGQGLEWMGIIKPSSGSTIYAHKFQGRVTMTRDTSTSTVYMEVRSLTSEDTAVYYCARDQDHGLQNWGQGTLVTVSS
VL: B16 VL with P13A, P14S, S21Y, G30A, N31S, L40F, I53N, E54Q, V107L
B19: fp.010 (antibody, V domains shown)
VH: EVQLLESGGGLVQPGGSLRLSCAASGFTFSTYAMNWVRQAPGKGLEWVSAISSSGLSTQYADSVRGRFTISRDTSKNTLYLHMNSLRAGDTAVYYCAKVEYSGYDPRGPFDSWGQGTLVTVSS
VL: DIQMTQSPSTLSASVGDRVTITCRASQSISGWLAWYQQKPGRAPKLLIYKASSLERGVPSRFSGSGSGTEFTLTISSLQPDDFATYYCQEYSSYPLCTFGQGTKLEIK
B20: hr2.025 (antibody, V domains shown)
VH: EVQLVQSGAEVKKPGESLKISCKGSGYSFTNYWIAWVRLMPGKGLEWMGFIFPGDSDTRYSPSFQGQVTISADKSISTAYLQWSSLKASDTAIYYCARRRGNSGNHDPYGMDVWGHGTTVTVSS
VL: not shown
B21: hr2.027 (antibody, V domains shown)
VH: B20 VH with T30A, S77T, Q82H, Y95F
VL: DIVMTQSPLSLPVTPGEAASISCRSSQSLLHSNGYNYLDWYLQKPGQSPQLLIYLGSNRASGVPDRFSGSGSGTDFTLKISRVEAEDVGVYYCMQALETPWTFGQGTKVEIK

Legend:
HCoV-229E S ectodomain = target: T1, HCoV-229E S ectodomain (HCoV-229E); experiment: ELISA on coated S
T1 construct: range 17-1142

SADS FP peptide = SADS FP peptide (SADS); experiment: peptide ELISA
[1] = target: C-terminally truncated SARS-CoV-2 S protein (pSARS-CoV2-Strunc), ancestral (SARS-CoV-2, UniProt P0DTC2 14-1273); experiment: cell-based or functional assay
HKU24 HR2 peptide = HKU24 HR2 peptide (HKU24); experiment: peptide ELISA
Eidolon HR2 peptide = Eidolon HR2 peptide (Eidolon); experiment: peptide ELISA

Binder	EC50 (HCoV-229E S ectodomain) [µg/mL]	EC50 (SADS FP peptide) [µg/mL]	Ancestral Pseudovirus IC50 [1] [ng/mL]	EC50 (HKU24 HR2 peptide) [µg/mL]	EC50 (Eidolon HR2 peptide) [µg/mL]	Ancestral Pseudovirus IC50 (on cells with [not given]) [1] [ng/mL]
B1	0.151	0.0276	–	–	–	–
B2	–	–	542	0.0176	–	–
B3	0.028	0.0255	2190	–	–	–
B4	0.0443	0.0305	9260	–	–	–
B5	–	–	–	0.0329	–	–
B6	0.0416	0.0252	9090	–	–	–
B7	0.0482	0.024	3560	–	–	–
B8	0.0285	0.0247	873	–	–	–
B9	0.0349	0.0154	–	–	–	–
B10	0.04	0.0252	16100	–	–	–
B11	0.037	0.0276	7840	–	–	–
B12	–	–	3020	0.0195	–	–
B13	–	–	–	0.0124	0.126	–
B14	–	–	301	0.0218	–	–
B15	–	–	10	0.00958	0.033	12
B16	–	–	1720	0.0249	0.463	–
B17	–	–	3830	0.0482	–	–
B18	–	–	–	0.027	0.186	–
B19	–	0.0644	–	–	–	–
B20	–	–	–	0.0719	2.92	–
B21	–	–	–	0.0919	1.21	–

— patent US20250382354A1 (INSTITUTE FOR RESEARCH IN BIOMEDICINE IRB, published 2025)
